According to a protein production outcome set (Wang et al. 2014):

Experiment: label from the status in PepcDB records
For “MYRDIATKLVAAIQDGIFTVKLPTEAQLMERYQASRNTIRKAIDLVYQQGLLRRVQGSGYYITNIQLQHKTVVNLSARSLFNSHVHPRTLTSKILTFDTIHGDSALSRKLNIPVDEELYRIIRLRYWHDQLYCLEKAYYLRSVVPYLSTEAVNTSIWDFINEAYGIGIANSDDYLSLTNLNKEEAELMNLAQGATHLALDSCNYYKNNGLLDFSHTIFVYPDLALYFHTTNLANN”, the protein production was “failed”.
For “MYREFYGLTEKPFSKTPDPRYLFLSRGHREALARLQYAVEERELALLTGDIGCGKTTISRALMDAVGNDGCFCFIVNPRLSAVEFLRTVARSLGIAEPAAAKDELLRQLTEAVYRLEGEKRCPVIIIDEAQLIPDQEVFDEIRLLTNFQLDDRNLMSVILMGQPELRQILSEPAHEALRQRIAMHYHLQPLSLEETLEYVDFRVEVAGGPQGLFSPDAIRRIYELSGGVPRKINILATNALLVGFGKDSAWIDASLVEELRDEASLYLEHHHHHH”, the protein production was “failed”.
In the case of “MYSALLNADIRIYGYLRASTDEQDASRAKNELMLFAEQMGFQVACWFEENESGAQLKRPELFRLLDIAISGDVILVEQVDRISRLNTQDWEKLKLMINKKGLKVVSLDLPTSYQFMSNTDDFTERMLSALNGMMLDMLAAVARKDYEDRRRRQAQGVQRAKLEGKYKGRPINTKLHNKIEGLLRENKSYSQIENLLGCSRHTISKVSKLIKSSIG”, the protein production is reported as “failed”.
In the case of “MYSKIEGSIITARFDKETDFFTDLVDLCNKYEVKSGTVLWAIGMLKEFQIGYWNGNDYEKETFRERLELVSLHGSIAENDPRFHIHAAGARGNHGIVGGHLFSAKVDPLVEIQIMKITGFSMSRELDNSDGLYKLVIKLEHHHHHH”, the protein production is reported as “failed”.
With “MYSNSKCNKFLMYFIFIIFLFCSCQTFYPKNSPEFSFIENSGKNFVWEKLTEGIFLSHIKYEDYPLIIHAVKIDLTNPKLKIVVTEPALFNSKGMVKRETTLSFARRHNTVIALNAAFFNVISFSFSLRGEPLGIHIDKKINLSKPFPKYGALCFLDDNSAFIIESQNTEDIKADIEYAVSGNRIILKNGKPIITNISKKENSRTCVGLADGGKTLYLFFAEGENKKKSRGITYDQAHFFMKKLGAQDAIHLDGGGSSSLIIKKENSFFVQVPSISHFGLRKVVTNLGFIIED” the protein production was “failed”.
For “MYSPFEILYLAIIIDSLSYTIGALLYGSPIPVRGFKEMGHKMIVNSIYVAVLANIFGLILSILSQLQNIVGANWSTFYLDIGLLQIQTGVAINMGKFLYGIIALILYYFKVPSQFYSLVTPLLQYISFLTDILILLNFYMDLGIFIQSSYMVLIAIGILLMALPFQMGKGIGAMLISFTIVFYVGLPLLPILISNSSPLQNQNFVLQDISLQTEEFYAQIPALFYSFILIPLTYVGVLVGFSVVLQSFIGGYVGRLPIPVEI”, the protein production was “failed”.
With “MYSYADRIRAVALYIKLGLRVRATIRQLGYPTKNALKGWYQHYLKHQDLPASQAPRAPKYSLQQRQVAIAHYLAHDRCIAATMRALGYPGRGTLTAWVRQDCPDTCKSRVGRSWPATKPDALMCEGVVQLCARRSSAQQIADKLGVCRGTLYNWKNQLLGPCAPASMKHSPKRSPVLDEAALRRQVESLRQDVRRLKIERELLKQAHEILKNGADIDLHRLANKDKAVLVEALHGQYELPELLSLVGLARSSYFYHRARLKLADKYVDLRRSITEIFDNNYRCYGYRRVQASLLKECTGISEKVVRRLMKQEGLIVAKPKRRRYNSYLGEIGAAPQNLINRDFRAAAPNEKWLTDITELQIPAGKVYLSPVIDCFDGLVVSWSIGTHPNAHLVNTMLDAAIDAVQGSESRPVIHSDRGAHYRWPGWLSRVHDAKLTRSMSRKGCSPDNAACEGFFGRLKMELFYPNNWQSTTIEQFIEAVDAYIRWYNEKRIKVSLGRLSPVEYRHKLGLAA” the protein production was “failed”.
In the case of “MYSYADRLRAVELYIRLGKRLNTTIRQLGYPTKNALRGWYREYVQHLDLRTQPVARAPKYSEAQRQAALEHFRTHDRCISGTMRALGYPGRGTLTAWVREAFPEARTSMVGRSWHPGYSEEVRQAGVIGLCSGDESAQQVADRLGVSRPTLYSWKDQLLGHEASSSMKRRKANPKVPEREELERKLEALQRDVRQLQLEHDLLKKANELLKKGLGVDLLILSNREKTQLIDALKEVYRLPELLAQLRIARSSYFYHRARMCLADKYAAVRLSLAEIFEANRRCYGYRRLQASLARKSVIVSEKVVQRLMKQEHLAVARPRRRRFGSYLGEISPAPENLINRDFHADAPNVKWLTDITEFQIPAGKVYLSPIIDCFDGMVISWSIGTQPDAGLVNTMLDAAIGTVANGEERPIIHSDRGAHYRWPGWLTRISEARLVRSMSRKGCSQDNAACEGFFGRLKTELFYPRDWKAITIEQFVAEVDAYIRWYNEKRIKISLGSLSPVEYRQSLGLKLLEHHHHHH”, the protein production is reported as “not failed”.
